From publication PMC2670497 come the findings set out here.

Test [1] deals with surface vimentin on HeLa cells (human (endogenous in HeLa)) (UniProt P08670). Kind of test: flow cytometry on cells; cells transfected with pCMV-SPORT6-vimentin or mock-transfected, 24 hours later incubated with wildtype CPMV at 5x10^5 virions per cell for 2 hours; percent CPMV-positive cells; data not shown. For orientation: Flow cytometry measures light scatter and fluorescence of single cells or particles in a stream.

The target of test [2] is vimentin expressed from pCMV-SPORT6-vimentin in MFT-16 vim-/- cells (UniProt P08670). The description is as above.
For test [3], the target named is purified recombinant vimentin protein (UniProt P08670). Kind of test: ELISA; 1 ug vimentin immobilised overnight on Immulon 2 HB plates in 0.1 M KPO4 pH 7.0; varying molar concentrations of CPMV, 1 hour, room temperature; detected with anti-CPMV polyclonal antibody; avidity not ruled out. On the technique in general: An ELISA detects its analyte on a solid surface through an enzyme-linked reagent.

Take “Cowpea mosaic virus (CPMV) particles, wild type (complex)”: the percent of cells CPMV-positive is 5.36% in test [1] and 1.21% in test [2]. In addition, in test [3], the EC50 (usually the concentration at which the effect is half-maximal) was 3.72 nM.
